The data set can be described thus: protease stability score; higher = more stable; yeast display proteolysis, trypsin and chymotrypsin.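 Further: relative to predicted unfolded state with 0 unfolded-like and 1 meaning tenfold more protease.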
“EDEERETEEAIRLFIKNEITGDWKRLLHYLDPNVRVRIGDKEIHGMERWKDEFKQEIDRVKGLRYELDDERRHLVDGKIEIILDFTIHVGEKRHRFQLVLILVKVNGRWIMHSIHVNYL” gave a protease stability score of 1.54.
Sequence “EDEKEFIERFARILLHARFTGDWKTLLELMDPNARITIEIGDKILEFHGMEQWIRENDKTEKKIKNITIHIEDMRIVNGVLEVDIHVHIGDKKYDFRIIVVVINGKVRQLEIKVE” gave a protease stability score of 2.08.
“EEAEQESKNFSEVVHRSLETGDEDNLMNNADPHVRSRIHVGDKRITSHGREVMELILERFKHARVVPTDIEVINGVAIIHMTMEYGDKELRIHLIFFKIDGKWILTHIIIRVD” returned a protease stability score of 0.056.
Turning to “EEDDEILEKAIRLHEHMLRTGDPREFWELADPHYKLNIGDKHIHGRETLLRHTLHKIEEYGFKHSRFVPKDWELQGDKIHLRGELILHFNGREHRYDYHIEAIKVNGQWVLHRIDIQ”, the protease stability score was determined as 1.23.
In turn, “EEDDKFSELAFNMLVESFKTGDEQHWRELADPRVKYQIDGRDLIGWTAFRRFLNEFGIDHMHIKLHDHRDYNGQVELDETLEIRYGDKTEHIKVTTIVHKINGQWIVKSFSVH” came in with a protease stability score of 0.682.
Regarding “EEDDRDLEDLLTKLDSAIQTGNWEILHHLIDPHARSHYNGRDFHGWRDLEFLLRIIVEEIRLDTVDMKHHEFYGDKMRLETTLTGEVNGQKTEFTTVLIYLKIDGKWVIHNFEVR”, the protease stability score is 0.729.
In the case of “EEDEEHIRKVIETFREMSETGDEDWSERMADPNARLIVGNKEFHGRERFNEWNRELTERIDHFEVRIRDFEIQGDKLILHVRITIIINGKDIETESHIIMKKVDGRWFMHSLHHK”, the protease stability score was determined as 0.752.
The sequence “EEDEEITKLYLEIILHIWLTGNEEELLRMFDPNARVDINGVINIGREDLLKRFHEHWRKYGAKHIRVRDIKFHIFNGVIYINLHLELIVGDKTFHVHLHMRSRKVDGRWHTHEFEERIN” returned a protease stability score of 1.69.
The sequence “EEDEEVAYHFMEEWFHYVHTGNEEMLERMLDPDVKLTFDGKEFHGRETVLRAIIEWRIEHVRIKDFRFKVINGRAEIRLDGERRGQIDGVKRETRIIIEINVHKVDGKWKIERVELHTL” had a protease stability score of 2.1.
In turn, “EEDEEYLRKHYTDLKHALETGDEDRIMELFDPHVRIDDEDHNLHGREELFRWLHDLGIDHHELRIDDFKIDGDKVSIDGHLRVIVNGRDIHFRTIIRIKKVNGQWRLTHLEIR” registered a protease stability score of 1.94.
For “EEDEHFAESYAEIMIHSWITGNEDLFEHLADPNWRLRVGDKEFHGREEATEFLIEFYERIDHFEIHIHDMKNIGEKLFIDGELNIHVNGRTIRHHTEIVIYTINGKVKSEEVRIK” the value was 1.95; for “EEDEKTAEEMMHIWIKYLMTGNEERLYKLVDPNARIEFNGRTDHGRESFTKFLRELGIKHSHIEEIRWDVQGEKVILTLHGRLDVNGVDRSNEILIIAEKVNGRWRVESVHLHLR”, 1.27.
Turning to “EEDFRLVDKFIKDFWKSFRTGDEDLFKKYLDPHVQLEVNGQEIHGREQLSRVLVELIIEFGVDHVEFRLHDWHIYDGQAEHHTHVRLKYGDKNVRRTLHIFMLKVDGRWILESMVIR”, the protease stability score came to 1.26.
Sequence “EEDHEIVEKMLKMLFHSWHTGDEKLFKTLVDPNAKFVIGDKTFHGREFYKFLHDRFDHFRMHDITVRKVEHFDGRLIAHVEIHWRLHIGDKTETEVTESHIIIEKIDGKWRNRSIIVH” returned a protease stability score of 1.76.
For “EEDHSEVERRLEIILHKWETGDERILHHYLDPHAKFIINGREYHGRENALEHWVKSEEDLGVKHERLREYDFRYQGDKVELHTEIELHVGNKVFDIHIIIIARKVNGRWVIEEVRLEFR” the value was 1.23.
Regarding “EEDKDWAEWAMRLFVELLFTGDEERLNHFLDPHVRVEFNGRDLHGREMLEKLLELMGIDHIQFKHIELRVIDGQVHLHIDGFADIDGRTHRIRIHMHFEKINGKWRFHSVKFEHK”, the protease stability score turned out to be 1.39.
For “EEDKEDAKKAAEISSHSWETGDEDHLTKLFDPNVRITIGDKELHGMSLLHTFLREWGISNVDFRLHHIDVQGEKLKVDGILNVNGRHTKVTLHYEKINGKWVIKEIIII” the value was 1.26.
“EEDKETAEHFSRVLHENWETGDEHRELLYMDPNVRTDFNGVDAVGREEFHKLVHHLLTHIRMRSLHIRKVHIQGEYLHIEGELNTEVNGREVVLEMRITSLKINGRWITHSMHFR” showed a protease stability score of 0.304.
In turn, “EEDLEHILELSEYFIRAWSTGDWDTIHKYADPHVRSDINGVESHGMEEMIRVYEEIRVTIEHVHYDHVTVQGEKLIVDGRMDYRVDINGKKKEHRTRVEIHVDVVNGRIKSFVINYR” yielded a protease stability score of 1.23.
“EEDQEIFEQAMRELINSNLTGNEHRMQELADPHVRLIVGDKTYIGRESIWRFLFEWRIDHIEIRSYDIQGDKVHVDIEVHMRYGDKSTVSRMELRAEKVNGRWHIHFIRIH” returned a protease stability score of 1.75.
The sequence “EEDQKMLEMVFRIILDLWITGDFDLIERLLDPDVRLDSKIGDKTVHHHGREEVAKHLFHIRIEDFIIHRVHVQGDKITINGELDGHFNGKRFNSEIHIHYVVINGRIRRLSFEEN” registered a protease stability score of 2.2.
Consider “EEDREHAREILRQLHHWFMTGDEEKWSKLMDPDARHHIHVGDKHSEYHGREEVIRFLRELIRHWRIDEVRIRRLHSIDGRVHSDIIVDGQVDGRHDRRDYELRVSVVDGRLKEVTIIVH”, for which the protease stability score is 1.07.
The sequence “EEDREWVERIIRHYREAELTGDEDRMKELVDPNTRFHIDGVVYHGMDEWTRYVRELRMRSRTRVHQVRVIDGRIEADFEYEIHIEINGVQIDRRQEVILIFKKVNGKWIVERVIVV” gave a protease stability score of 1.93.
Regarding “EEDRKHAEHVFELLMEVLLTGDWKMSRHLFDPNARIEIDGVESHGWEFIYRLLRFIWEHLGIKVRDMKIRRFDVINGVAHFDGELRLHVDGVEIVLEIRLNIFVINGRLKEVHLKRT”, the protease stability score was 1.42.
The sequence “EEDRNDVEDFLRMFRTALTTGDEHILEHLADPNTRVDINGKEWHGWHHVSELHKKHLEDLGADHVEFRVHDFRIIGNKVHVDSRLIEHQGDKILIINTIIIQLKINGRWVIHELRFR” returned a protease stability score of 0.988.
Regarding “EEDRRMVEDAIRIFLKSLRTGDEESLTRMVDPHVKYHQGEYHMHGREELVRYFAERWEELGVENINTDMRPTHIEFQGEKIIIMGRYHLHVNGRESHTRIEFIATKIDGQWRLHKIRFE”, the protease stability score was 1.53.
Turning to “EEDSEMAREISESILRMIKTGDERHFMRLLDPHVKIDINGREHHGRHAATHQLRETSEKFGFDRITVRLESVHVQGEYVNINGRVEQGDFHLTLHFHFRKIDGRWVMDSVHIV”, the protease stability score turned out to be 0.559.
On to “EEEAAHQFNKWLSLMKHGNEHKASEMLDKDAHIKVGDKTLQGREDVQRDVRRRKEELKFSMTIVDYKDHGDKARLTVEQTNDHNGRPRTRRANVTVHVSNGRVKEIVINDDS”, for which the protease stability score was -0.16.
For “EEEDDVLHEFLREFIHFFSTGDFDHIIEMLDPNTQQHVGDKINIGREEWKHWLKFHLDRLGVDQVRVHVRRVRFFNGRVELNIELRQGDYVFDARILALKVDGRWLLESVEIK” the value was 2.82; for “EEEDEWSREAVEFFKRMVETGDEDLQETLADPNARLIQGDKDEHGRHVLSEWMHRMGVDHIRFHHIDVQGDKVRLDFTMRVNGRQIHVKINNMKVNGQWRIKSVHLR”, 0.537.
“EEEDREFEERWKEFEHAMRTGDEDSLEENLDPNVRFLFDGQEIVGRELTSKFIAEWLRSLGVEKVTIFMRRFHVIGDKVTVDGAFEVNGVHIRTIVYSKKVNGRWFNKSEEFR” returned a protease stability score of 0.733.
“EEEDRIFKEARRLLEYVSETGDETTLKKLVDPHARTHIGDKLLHGREWLHDLLRKAGEDRFHFIIHHVDLQGDKIQMFGQLVIGDKLIHVEIIVNKIDGRWFVESIKID” gave a protease stability score of 0.889.
“EEEEEDARRASKIFYHNFLTGDEQNLLKLADPHVLLIINGVHFHGWERYKKWEEERRDKFKNVRLELEDMDVEVIGDKIESIIHLRVDIGDKRIHMEVIFIIEKVDGRWKLRSQEVRIE” had a protease stability score of 1.03.
Turning to “EEEEEELLELLKRLWHAKSTGDEETTEKMADPNARFIINGREVHGRHMLNHLVKHLREEIKHVHIHRVSVVNGKAKMDTEVNVELEYNGVTFIIRTRVEIDTVVIDGRFHSVSIEIR”, the protease stability score stood at 1.12.
The sequence “EEEEEFLRIMIELFLRTVKTGDEDAFNKLADPNVKSNINGVTLHGMERHHEWLRIELEKAGVERVDTRLDDKNIIDGRVIVHGTMFYNGRTITVHNIWHKINGRWVLETIEIR” came in with a protease stability score of 1.6.
For “EEEEEHMEHMMRLTLQLFKTGDEETFIDLLDPNVKVHINGVTVHGWDRLIRVKEMIDKEIRFRDFIIHHIRVVDGRAEMEGTVTGDVNGQSRIRDWRSILVVIDGKIKSISWQFN”, the protease stability score worked out at 2.27.
Sequence “EEEEEKQERALRWFLHIIETGNEELLHRLLDPNVQVEIGDKRFHGWKHLLMVFNDLGVKHVELRDFTIINGVIRNEILLRVGDKENLTILILRKVDGKWQLERFNLQ” returned a protease stability score of 1.79.
For the sequence “EEEEENAKQFFHIWERSMRTGDEKTLHELADPHVRAVIGDKHHIGREEFHEVIRQTMEHIRVDDMILHTIMVYDGKVEILGRLVVRVGDKTHEVHVKIQVEKINGRWLLTELHIK”, the protease stability score worked out at 0.074.
Sequence “EEEEESVQRAMERILHALQTGDWHTLSRMADPHVKLLVNGVELHGMEKIEEFLKKLLEELGVDKIDVRLHDFHTFNGVVHVDVRSHFNGRTHREEWVLLKVNGRWSLKEVRTE” yielded a protease stability score of 1.44.
“EEEEKEADEEVRIMIKSLYTGDEDTVHEMADPNALVKVGDKTIHGMHLFLHTWIRRMEKHGIRVEVRLDDLEIQGEKIHIHLTLIYRFNGKDYPIEFEIHVNKINGQWRVSEIIEI” came in with a protease stability score of 1.25.
Turning to “EEEEKEIKDLLREIFEMIVTGDWRLIRENMDPNARMEVGDKEVHGRDHVIHHLHNLGFKHIKEKDINVQGEKISIHGHVDVNGRSRHVDFIAHKVNGKWLYKSFHFH”, the protease stability score came to 0.826.
“EEEEKHAKHVAKEFLRLLFTGNEHRLKEYLDPNVRLDVNGQEFHGWEEIVKWLREIRFEDSRLHRIRVVGDKIDIDGELDGVINGRRVDRRSIIILFVVDGRYTEVTYRNI” yielded a protease stability score of 1.26.
For “EEEEKHEREMAKIMLDVLRTGDEELFERMFDPNTRYEVGDKILHGRHEVLRNWLEMIKKFKNARFITRHVHVFNGVLHINIEVRFDGRTHEYHIDLFFWDGRFKEVRVESH” the value was 1.54; for “EEEEKMARKMIKDIIENFRTGDWDLMETLADPDVRLHFNGRDYHGREEFLKIERTRFEKVPNVRETERNVTWRNFDGRLELEIHTEHIINGVRIHVLLIFTTEKINGRWSMKSIEIHEK”, 0.704.
Sequence “EEEEKVEHDLLRLFAEALSTGNEHIMAELLDPHVRIIVNGKHNIGRETRKTFIEHIRVRSEDVRIRTIEVQGDKIITDSEMDIILDFDGVRTTTTVEVQIIIWKYNGKWYIKMVKFK” showed a protease stability score of 1.36.
Turning to “EEEEQHMKEMAHIFIELMETGDEERLHKYFDPNWRFRIGDKHHHGRETYIHWLHQLGVDKVKVHLRHLDFQGDKLRIDSEREFDGKIEKIDIILIKFNGRWIINEIRVD”, the protease stability score came out at 1.29.
For “EEEERESEEKFRLLLELLRTGDEEILKHMADPNTKIVINGVDLHGWKEWHRIMRRFKNVTIRFKELWVYGDKAQARVEFDIDGKSFEMELHFVVINGRLKSIHVHSH” the value was 2.11.
